B1: recombinant mouse AXL protein (receptor, UniProt Q00993 19-445, looked up)
chain: AHKDTQTEAGSPFVGNPGNITGARGLTGTLRCELQVQGEPPEVVWLRDGQILELADNTQTQVPLGEDWQDEWKVVSQLRISALQLSDAGEYQCMVHLEGRTFVSQPGFVGLEGLPYFLEEPEDKAVPANTPFNLSCQAQGPPEPVTLLWLQDAVPLAPVTGHSSQHSLQTPGLNKTSSFSCEAHNAKGVTTSRTATITVLPQRPHHLHVVSRQPTELEVAWTPGLSGIYPLTHCNLQAVLSDDGVGIWLGKSDPPEDPLTLQVSVPPHQLRLEKLLPHTPYHIRISCSSSQGPSPWTHWLPVETTEGVPLGPPENVSAMRNGSQVLVRWQEPRVPLQGTLLGYRLAYRGQDTPEVLMDIGLTREVTLELRGDRPVANLTVSVTAYTSAGDGPWSLPVPLEPWRPGQGQPLHHLVSEPPPRAFSWPWW
notes: AXL receptor tyrosine kinase, mouse; recombinant protein R&D Systems #854-AX; also called mouse Axl antigen; recombinant mouse antigen; source: bought: R&D Systems (#854-AX)

Assays:
[1] = target: T1, [111In]In-DTPA-sdAb20-Fc (alpaca (Vicugna pacos)); assay: ELISA; radio-ELISA: recombinant mouse AXL coated on Lockwell C8 Maxisorp plates; serial dilution of [111In]In-DTPA-sdAb-Fc in PBS + 1% FBS; bound radioactivity by gamma counter; specific binding = total minus non-specific binding; conditions: both partners purified
T1 construct: as the VHH of Dm1; the His6 tag of sdAb20 was replaced with the mIgG2a-Fc region; about 80 kDa; also called [111In] anti-AXL sdAb20-Fc; 111In-labeled sdAb20-Fc; source: DTPA-conjugated and 111In-labelled, purified (SEC, NAP-5); not shown: Fc (mouse IgG2a), C-terminal, kept

[2] = target: B1; assay: SPR; Biacore-T200; recombinant AXL protein immobilised on CM5 chip by amine coupling (EDC/NHS); sdAbs injected at ten concentrations from 1.9 to 500 nM; 25°C; HBS (20 mM HEPES pH 7.4, 150 mM NaCl, 3.4 mM EDTA, 0.005% Tween 20); 10 µL/min; 1:1 binding model; conditions: both partners purified
[3] = target: T2, recombinant human AXL protein (Homo sapiens, UniProt P30530); assay: as above; conditions: both partners purified
T2 construct: AXL receptor tyrosine kinase, human; recombinant protein R&D Systems #154-AL; also called hAXL; AXL - Homo sapiens; source: bought: R&D Systems (#154-AL)

[4] = target: T3, AXL on AXL-overexpressing murine C1498 AML cells (Mus musculus, UniProt Q00993); assay: flow cytometry on cells; sdAb20 or sdAb20-Fc on AXL-expressing human and murine cancer cell lines, compared with the irrelevant control R3B23 or R3B23-Fc; read-out MFI; conditions: one partner purified
T3 construct: receptor tyrosine kinase AXL overexpressed in murine C1498 cells by lentiviral transduction; also called AXL^high C1498; source: C1498 cells, lentivirally transduced and positively selected, on cells

[5] = target: T4, recombinant human AXL protein (human, UniProt P30530); assay: SPR; competition assay for blocking of hAXL and hGAS6; which partner was immobilised is not shown; conditions: both partners purified
T4 construct: receptor tyrosine kinase AXL, human, recombinant protein from R&D Systems; also called hAXL; source: bought: R&D Systems

[6] = target: T5, recombinant mouse AXL protein (Mus musculus, UniProt Q00993); assay: SPR; Biacore T200; recombinant AXL immobilised on CM5 chip by amine coupling; seven serial dilutions of sdAb flowed over; 25 °C; HBS (20 mM HEPES pH 7.4, 150 mM NaCl, 3.4 mM EDTA, 0.005% Tween 20); 1:1 binding model; conditions: both partners purified
T5 construct: receptor tyrosine kinase AXL, mouse, recombinant protein from R&D Systems; also called recombinant mouse antigen; source: bought: R&D Systems

T2 sequence (P30530 26-451): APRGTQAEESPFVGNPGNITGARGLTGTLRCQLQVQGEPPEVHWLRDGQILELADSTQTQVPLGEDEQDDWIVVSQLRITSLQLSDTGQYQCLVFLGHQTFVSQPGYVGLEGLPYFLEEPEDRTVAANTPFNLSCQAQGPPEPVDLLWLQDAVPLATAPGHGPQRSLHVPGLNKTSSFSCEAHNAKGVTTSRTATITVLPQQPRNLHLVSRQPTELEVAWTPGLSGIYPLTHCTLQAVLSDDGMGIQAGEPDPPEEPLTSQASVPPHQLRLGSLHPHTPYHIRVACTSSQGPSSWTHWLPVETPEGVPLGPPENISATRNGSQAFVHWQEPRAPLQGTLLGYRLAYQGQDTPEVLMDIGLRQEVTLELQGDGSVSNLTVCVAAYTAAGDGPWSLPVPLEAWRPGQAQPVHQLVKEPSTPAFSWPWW
T4 sequence (P30530 26-451): as above

binding result [2] | binding result [3] | Binder | other results
– | – | B1 | Kd [1]: 11.9 nM
binds | binds | anti-AXL single domain antibody sdAb25 (VHH, source: E. coli WK6, periplasmic expression, purified (IMAC, SEC)) VHH: QVQLQESGGGLVQPGGSLRLSCVASGSIFSIYAMGWYRQAPGKQRELVAGISSGGSTNYADSVKGRFTISRDNAKNTVYLQMNSLKPEDTAVYYCNYDLVEAVTGEYDYWGQGTQVTVSS | –
binds | binds | anti-AXL single domain antibody sdAb12 (VHH, source: E. coli WK6, periplasmic expression, purified (IMAC, SEC)) VHH: QVQLQESGGGLVKPGGSLRLSCVASGSIFSIYAMGWYRQAPGKQRELVAGISSGGSTNYADSVKGRFTISRDNAKNTVYLQMNSLKPEDTAVYYCNYDLVEAVTGEYDYWGQGTQVTVSS | –
binds | binds | anti-AXL single domain antibody sdAb4 (VHH, source: E. coli WK6, periplasmic expression, purified (IMAC, SEC)) VHH: QVQLQESGGGLVQPGGSLRLSCVASGSIFSIYAMGWYRQAPGKQRELVAGISSGGSTNYADSVKGRFTISRDNAKNTVYLQMNSLKPEDTAVYYCNYDLVKAVTGEYDYWGQGTQVTVSS | –
binds | – | anti-AXL single domain antibody sdAb19 (VHH, source: E. coli WK6, periplasmic expression, purified (IMAC, SEC)) VHH: QVQLQESGGGMVQPGGSLRLSCAASGFTFTSYDMTWLRQTPGKGPEWVSTISTGGLRTYYGNSVKGRFIISRDNTKNTLYLQMNSLKPEDTALYYCARGPFTVADPRRGQGTQVTVSS | –
– | – | anti-AXL single domain antibody sdAb20 (VHH, alpaca-derived; Re-cloned into pHEN6, which encodes the C-terminal His6 tag; also called lead compound; monovalent sdAb20; source: E. coli WK6, periplasmic expression, purified (IMAC, SEC); not shown: His6, C-terminal, kept) VHH: QVQLQESGGGLVRPGGSLRLSCAASGFTFTSYDMTWLRQTPGKGPEWVSTISTGGLRTYYGNSVKGRFIISRDNTKNTLYLQMNSLKPEDTALYYCARGPFTVADPRRGQGTQVTVSS | binding result [4]: binds; IC50 [5]: 119 nM; binding result [6]: binds
binds | – | anti-AXL single domain antibody sdAb20 (VHH, re-cloned into pHEN6 (C-terminal His6 tag), monomeric format; source: E. coli WK6, periplasmic expression, purified (IMAC, SEC)) VHH: QVQLQESGGGLVRPGGSLRLSCAASGFTFTSYDMTWLRQTPGKGPEWVSTISTGGLRTYYGNSVKGRFIISRDNTKNTLYLQMNSLKPEDTALYYCARGPFTVADPRRGQGTQVTVSS | –

From paper PMC11103505, “AXL-specific single domain antibodies show diagnostic potential and anti-tumor activity in Acute Myeloid Leukemia” (Theranostics, 2024)
